Assay results taken from patent publication US20260125725A1 (ANTHEIA, published 2026).

B1: THS1 (thebaine synthesis polypeptide isoform, SEQ ID NO. 80) (enzyme)
chain: MDSINSSIYFCAYFRELIIKLLMAPLGVSGLVGKLSTELEVDCDAEKYYNMYKHGEDVQKAVPHLCVDVKVISGDPTRSGCIKEWNVNIDGKTIRSVEETTHNDETKTLRHRVFEGDMMKDFKKFDTIMVVNPKPDGNGCVVTRSIEYEKTNENSPTPFDYLQFGHQAIEDMNKYLRDSE
notes: Purified recombinant protein from E. coli, made from a codon-optimized gene; It carries a His6-tag; 181 amino acids; also called thebaine synthase 1
B2: THS1s (N-terminally truncated splice variant of THS1, SEQ ID NO. 81) (enzyme)
chain: MYKHGEDVQKAVPHLCVDVKVISGDPTRSGCIKEWNVNIDGKTIRSVEETTHNDETKTLRHRVFEGDMMKDFKKFDTIMVVNPKPDGNGCVVTRSIEYEKTNENSPTPFDYLQFGHQAIEDMNKYLRDSE
notes: Purified recombinant His6-tagged protein from E. coli; 131 amino acids
B3: THS2s (N-terminally truncated splice variant of THS2, SEQ ID NO. 32) (enzyme)
chain: MYKHGEDVKKAVPHLCVDVKIISGDPTSSGCIKEWNVNIDGKTIRSVEETTHDDETKTLRHRVFEGDVMKDFKKFDTIMVVNPKPDGNGCVVTRSIEYEKTNENSPTPFDYLQFGHQAIEDMNKYLRDSESN
notes: Purified recombinant His6-tagged protein from E. coli; 133 amino acids; also called BetV1-1S; Bet v1-1S
B4: THS2 (thebaine synthesis polypeptide isoform, SEQ ID NO. 6) (enzyme)
chain: MAPLGVSGLVGKLSTELEVDCDAEKYYNMYKHGEDVKKAVPHLCVDVKIISGDPTSSGCIKEWNVNIDGKTIRSVEETTHDDETKTLRHRVFEGDVMKDFKKFDTIMVVNPKPDGNGCVVTRSIEYEKTNENSPTPFDYLQFGHQAIEDMNKYLRDSESN
notes: Purified recombinant protein from E. coli, made from a codon-optimized gene; 163 amino acids; also called Betv1; Betv1M

Experiments:
[1] = target: the molecule itself; assay: BS3 chemical cross-linking of purified recombinant protein, SDS-PAGE and immunoblot
Method: (§1) All versions of THS1 and THS2 transcripts were codon-optimized and expressed in E. coli. Purified recombinant THS proteins were added to SalAT-coupled enzyme assays. […] Chemical cross-linking with the purified, recombinant THS proteins was performed to confirm dimerization (FIGS. 15A and 15B). Both THS1 and THS2 can form homodimers, and also display the formation of higher molecular weight oligomers at lower abundance. […] To further investigate the relative abundance of THS isoforms in the plant, protein extracts derived from whole stem, latex-free stem, and latex isolated from the T chemotype were subjected to proteomics analysis (FIG. 11C). In detected peptides with at least one amino acid substitution spectral counts for THS2 were considerably higher than for THS1, consistent with the higher abundance of THS2, compared with THS1, transcripts (FIG. 12C).
(§2) Cross-linking experiments. Bis[sulfosuccinimidyl] suberate (BS3) was used as cross-linking reagent and prepared in PBS buffer at a concentration of 10 mM, of which 2 μL was added to 20 μL of purified recombinant protein (1 μg/μL). After incubation on ice for 1 h, 5 μL of 5×SDS (10% w/v) was added to quench the reaction. Samples were then boiled for 5 min and subjected to SDS-PAGE and immunoblot analysis.

[2] = target: the molecule itself; assay: cross-linking, SDS-PAGE and immunoblot (FIG. 15A)
Method: as §1, §2

[3] = target: the molecule itself; assay: size exclusion chromatography of purified recombinant THS2 (FIG. 15B)

Protein	binding result [1]	further results
B1	binds	
B2	binds	
B3		binding result [2]: binds
B4		binding result [3]: binds
